The data set “cross-linking” deals with the molecule itself. Briefly: cross-linking.
For another data set, the target named is RAD51 WT (Homo sapiens, UniProt Q06609 1-339). Briefly: BLI. (In general: Biolayer interferometry detects binding as a change in optical thickness at a sensor tip.)

Four molecules from paper doi:10.1101/2023.08.11.552966 (bioRxiv, 2023) can be followed below.

Substitutions are numbered along the chain they refer to. Names and notes keep the numbering of the source.

B1: His-tagged RAD51 S97A (non phosphorylable mutant) (natural protein)
chain: MAMQMQLEANADTSVEEESFGPQPISRLEQCGINANDVKKLEEAGFHTVEAVAYAPKKELINIKGISEAKADKILAEAAKLVPMGFTTATEFHQRRAEIIQITTGSKELDKLLQGGIETGSITEMFGEFRTGKTQICHTLAVTCQLPIDRGGGEGKAMYIDTEGTFRPERLLAVAERYGLSGSDVLDNVAYARAFNTDHQTQLLYQASAMMVESRYALLIVDSATALYRTDYSGRGELSARQMHLARFLRMLLRLADEFGVAVVITNQVVAQVDGAAMFAADPKKPIGGNIIAHASTTRLYLRKGRGETRICKIYDSPCLPEAEAMFAINADGVGDAKD
As for B1, the binding result in “cross-linking” is given as “binds”.

B2: His-tagged RAD51 S97D (phosphomimetic mutant) (natural protein)
chain: B1 chain with A97D
With B2, in “cross-linking”, the binding result is listed as “binds”.

B3: 33m DNA (ssDNA)
DNA: TCCTTTTGATAAGAGGTCATTTTTGCGGATGGC
A word on the Kd: it is the equilibrium constant for the complex coming apart. Read a high Kd as lower affinity. B3 displayed a dissociation constant Kd in the data set with RAD51 WT of 3840 nM.

B4: 33m RNA (ssRNA)
RNA: GCCAUCCGCAAAAAUGACCUCUUAUCAAAAGGA
Consider B4, for which the Kd with RAD51 WT was 530 nM.
